{"source": "patent US20200262877A1", "about": "“ION CHANNEL-BINDING PEPTIDES AND METHODS OF USE THEREOF” (priority 2017, published 2020)", "key": {"Kv2.1": {"target": "T1, Kv2.1 (Homo sapiens, UniProt Q14721)", "T1 construct": "host or cells: HEK293 or CHO", "assay": "cell-based", "settings": "100% = no change, <100% = inhibition", "outline": "(§1)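 Peptides were tested in duplicate at final 20 μM and 200 nM, with concentration set by amino acid analysis, in HEPES-buffered saline. They were applied for at least 5 min to HEK293 or CHO cells transfected with each channel. Currents were expressed as % inhibition, 1-(Ipeptide/Icontrol)×100, or % activation, Ipeptide/Icontrol×100, against a channel-matched reference compound.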"}, "Cav2.1": {"target": "T2, Cav2.1 (Homo sapiens, UniProt O00555)", "T2 construct": "host or cells: HEK293 or CHO", "assay": "cell-based", "settings": "100% = no change, <100% = inhibition", "outline": "as §1"}, "Cav2.2": {"target": "T3, Cav2.2 (Homo sapiens, UniProt Q00975)", "T3 construct": "host or cells: HEK293 or CHO", "assay": "cell-based", "settings": "100% = no change, <100% = inhibition", "outline": "as §1"}, "Nav1.5": {"target": "Nav1.5 (Homo sapiens, UniProt Q14524)", "sequence (Q14524 whole entry)": "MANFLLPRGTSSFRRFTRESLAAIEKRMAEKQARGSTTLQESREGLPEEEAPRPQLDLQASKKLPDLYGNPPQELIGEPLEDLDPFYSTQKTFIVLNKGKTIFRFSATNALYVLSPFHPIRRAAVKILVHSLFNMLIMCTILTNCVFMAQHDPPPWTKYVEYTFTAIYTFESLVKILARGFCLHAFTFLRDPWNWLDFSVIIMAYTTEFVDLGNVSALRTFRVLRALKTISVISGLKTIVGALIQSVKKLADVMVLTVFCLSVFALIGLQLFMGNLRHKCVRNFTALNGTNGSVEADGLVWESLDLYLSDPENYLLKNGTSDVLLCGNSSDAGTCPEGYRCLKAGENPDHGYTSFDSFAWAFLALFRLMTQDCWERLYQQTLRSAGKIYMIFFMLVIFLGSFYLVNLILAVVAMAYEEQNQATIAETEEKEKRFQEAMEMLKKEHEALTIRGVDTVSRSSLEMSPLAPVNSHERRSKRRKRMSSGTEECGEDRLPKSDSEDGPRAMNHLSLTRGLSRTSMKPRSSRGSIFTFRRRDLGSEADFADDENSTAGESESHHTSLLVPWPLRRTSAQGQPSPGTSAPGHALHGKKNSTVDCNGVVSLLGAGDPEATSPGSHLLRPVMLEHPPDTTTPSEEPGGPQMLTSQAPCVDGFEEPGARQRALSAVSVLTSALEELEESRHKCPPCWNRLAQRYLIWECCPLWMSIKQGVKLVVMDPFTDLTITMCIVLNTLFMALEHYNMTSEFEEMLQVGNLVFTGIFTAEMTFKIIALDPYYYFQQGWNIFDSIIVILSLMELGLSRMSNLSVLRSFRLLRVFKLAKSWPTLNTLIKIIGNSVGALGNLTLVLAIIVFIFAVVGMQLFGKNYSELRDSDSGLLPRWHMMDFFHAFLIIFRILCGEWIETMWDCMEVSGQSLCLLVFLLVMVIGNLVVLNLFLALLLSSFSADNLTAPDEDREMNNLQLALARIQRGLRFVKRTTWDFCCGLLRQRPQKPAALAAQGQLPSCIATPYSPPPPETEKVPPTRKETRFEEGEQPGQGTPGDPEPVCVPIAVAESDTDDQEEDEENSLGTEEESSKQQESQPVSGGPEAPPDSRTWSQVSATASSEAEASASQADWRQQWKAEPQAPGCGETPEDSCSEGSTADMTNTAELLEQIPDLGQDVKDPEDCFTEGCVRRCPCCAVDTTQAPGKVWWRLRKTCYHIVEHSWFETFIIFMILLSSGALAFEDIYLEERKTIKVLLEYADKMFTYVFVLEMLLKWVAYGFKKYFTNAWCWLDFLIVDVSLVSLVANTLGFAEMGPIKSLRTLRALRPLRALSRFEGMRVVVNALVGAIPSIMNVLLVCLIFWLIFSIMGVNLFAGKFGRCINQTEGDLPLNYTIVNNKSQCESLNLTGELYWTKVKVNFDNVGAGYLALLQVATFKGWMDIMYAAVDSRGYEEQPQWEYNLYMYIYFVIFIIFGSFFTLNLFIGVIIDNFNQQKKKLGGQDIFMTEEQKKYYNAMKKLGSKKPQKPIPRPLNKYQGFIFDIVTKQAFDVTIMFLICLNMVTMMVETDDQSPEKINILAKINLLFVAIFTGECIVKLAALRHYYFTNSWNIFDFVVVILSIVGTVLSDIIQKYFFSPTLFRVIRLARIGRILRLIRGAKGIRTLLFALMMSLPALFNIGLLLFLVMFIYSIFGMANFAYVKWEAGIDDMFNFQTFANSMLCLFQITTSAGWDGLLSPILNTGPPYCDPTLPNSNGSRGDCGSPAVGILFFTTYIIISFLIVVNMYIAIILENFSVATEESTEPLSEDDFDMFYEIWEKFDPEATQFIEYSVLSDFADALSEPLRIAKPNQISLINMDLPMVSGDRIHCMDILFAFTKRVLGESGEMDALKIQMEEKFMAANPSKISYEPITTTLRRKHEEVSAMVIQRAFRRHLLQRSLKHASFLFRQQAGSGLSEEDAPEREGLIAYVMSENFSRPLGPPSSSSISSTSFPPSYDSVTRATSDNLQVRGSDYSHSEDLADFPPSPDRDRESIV", "assay": "in vitro", "settings": "100% = no change; for Activity of Nav1.5 with peptide, expressed as a percentage of the reference compound: peptide at 0.2 μM; for Activity of Nav1.5 with peptide (percentage of the reference compound): peptide at 20 μM", "outline": "as §1"}, "hERG": {"target": "hERG (Homo sapiens, UniProt Q12809)", "assay": "in vitro", "settings": "100% = no change, <100% = inhibition", "outline": "as §1"}, "α4β2": {"target": "T4, α4β2 (Homo sapiens, UniProt P17787+P43681)", "T4 construct": "host or cells: HEK293 or CHO", "assay": "Ion channel panel (IonWorks Barracuda): α4β2", "assay_type": "cell-based", "settings": "100% = no change, <100% = inhibition", "outline": "as §1"}, "NR2A": {"target": "T5, NR2A (Homo sapiens, UniProt Q12879)", "T5 construct": "host or cells: HEK293 or CHO", "assay": "Ion channel panel (IonWorks Barracuda): NR2A", "assay_type": "cell-based", "settings": "100% = no change, <100% = inhibition", "outline": "as §1"}, "TRPV1": {"target": "T6, TRPV1 (Homo sapiens, UniProt Q8NER1)", "T6 construct": "host or cells: HEK293 or CHO", "assay": "Ion channel panel (IonWorks Barracuda): TRPV1", "assay_type": "cell-based", "settings": "100% = no change, <100% = inhibition", "outline": "as §1"}, "Nav1.7": {"target": "T7, Nav1.7 (Homo sapiens, UniProt Q15858)", "T7 construct": "host or cells: HEK293 or CHO", "T7 sequence (Q15858 whole entry)": "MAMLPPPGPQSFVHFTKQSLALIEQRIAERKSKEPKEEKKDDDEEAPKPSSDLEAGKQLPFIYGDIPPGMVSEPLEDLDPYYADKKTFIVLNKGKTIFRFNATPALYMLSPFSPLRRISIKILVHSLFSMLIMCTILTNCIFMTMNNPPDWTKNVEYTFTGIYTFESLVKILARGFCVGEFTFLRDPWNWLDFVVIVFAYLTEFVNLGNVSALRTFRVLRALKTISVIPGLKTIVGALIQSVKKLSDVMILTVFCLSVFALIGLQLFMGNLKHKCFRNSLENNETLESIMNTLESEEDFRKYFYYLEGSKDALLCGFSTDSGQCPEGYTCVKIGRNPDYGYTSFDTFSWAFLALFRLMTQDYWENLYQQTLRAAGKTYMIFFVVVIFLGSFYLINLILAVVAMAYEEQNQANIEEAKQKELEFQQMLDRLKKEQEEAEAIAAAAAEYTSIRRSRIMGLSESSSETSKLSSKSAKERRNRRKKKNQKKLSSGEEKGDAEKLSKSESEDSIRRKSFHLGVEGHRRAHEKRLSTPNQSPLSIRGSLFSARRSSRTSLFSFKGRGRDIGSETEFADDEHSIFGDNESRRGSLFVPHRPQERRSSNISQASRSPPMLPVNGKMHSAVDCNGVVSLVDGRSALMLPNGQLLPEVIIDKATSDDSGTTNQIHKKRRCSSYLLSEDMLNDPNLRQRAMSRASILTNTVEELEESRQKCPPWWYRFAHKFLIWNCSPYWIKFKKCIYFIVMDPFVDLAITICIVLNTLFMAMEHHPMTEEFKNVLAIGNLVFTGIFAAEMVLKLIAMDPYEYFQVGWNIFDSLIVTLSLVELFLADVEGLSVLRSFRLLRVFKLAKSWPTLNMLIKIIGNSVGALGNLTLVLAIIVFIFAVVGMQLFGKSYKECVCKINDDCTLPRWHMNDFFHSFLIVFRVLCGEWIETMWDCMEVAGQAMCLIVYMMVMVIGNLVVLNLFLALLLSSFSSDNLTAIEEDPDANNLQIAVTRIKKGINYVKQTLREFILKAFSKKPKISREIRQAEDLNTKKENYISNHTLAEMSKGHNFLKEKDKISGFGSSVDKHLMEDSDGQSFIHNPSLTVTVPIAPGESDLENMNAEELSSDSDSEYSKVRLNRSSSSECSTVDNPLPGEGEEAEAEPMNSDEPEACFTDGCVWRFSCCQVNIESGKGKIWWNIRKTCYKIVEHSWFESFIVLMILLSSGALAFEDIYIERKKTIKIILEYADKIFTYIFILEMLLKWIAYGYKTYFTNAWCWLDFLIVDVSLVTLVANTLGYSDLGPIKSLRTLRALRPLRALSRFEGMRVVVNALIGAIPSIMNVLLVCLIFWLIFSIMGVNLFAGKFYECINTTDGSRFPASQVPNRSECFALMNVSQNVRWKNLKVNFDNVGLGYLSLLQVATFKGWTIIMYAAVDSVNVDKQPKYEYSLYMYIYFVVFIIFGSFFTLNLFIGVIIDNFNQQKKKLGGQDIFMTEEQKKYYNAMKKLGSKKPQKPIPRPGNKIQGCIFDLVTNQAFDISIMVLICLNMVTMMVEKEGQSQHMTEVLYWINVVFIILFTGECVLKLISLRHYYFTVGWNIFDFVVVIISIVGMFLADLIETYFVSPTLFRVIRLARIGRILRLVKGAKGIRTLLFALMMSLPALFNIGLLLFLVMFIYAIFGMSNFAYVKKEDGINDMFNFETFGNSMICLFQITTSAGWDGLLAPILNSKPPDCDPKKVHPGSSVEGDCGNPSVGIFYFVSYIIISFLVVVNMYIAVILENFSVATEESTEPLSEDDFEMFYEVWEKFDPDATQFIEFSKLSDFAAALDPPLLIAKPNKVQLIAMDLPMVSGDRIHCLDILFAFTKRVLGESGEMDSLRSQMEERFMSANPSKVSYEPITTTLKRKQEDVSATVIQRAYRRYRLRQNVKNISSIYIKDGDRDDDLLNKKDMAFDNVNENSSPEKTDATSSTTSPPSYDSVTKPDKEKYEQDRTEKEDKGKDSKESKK", "assay": "cell-based", "assay_type": "cell-based", "settings": "100% = no change; for Activity of Nav1.7 with peptide, expressed as a percentage of the reference compound: peptide at 0.2 μM; for Activity of Nav1.7 with peptide (percentage of the reference compound): peptide at 20 μM"}, "TRPA1": {"target": "T8, TRPA1 (Homo sapiens, UniProt O75762)", "T8 construct": "host or cells: HEK293 or CHO", "assay": "Ion channel panel (IonWorks Barracuda): TRPA1", "assay_type": "cell-based", "settings": "100% = no change, <100% = inhibition", "outline": "as §1"}, "GABA": {"tested_on": "GABA", "assay": "Ion channel panel (IonWorks Barracuda): GABA", "assay_type": "cell-based", "settings": "100% = no change, <100% = inhibition", "outline": "as §1"}, "α3β4": {"target": "T9, α3β4 (Homo sapiens, UniProt P30926+P32297)", "T9 construct": "host or cells: HEK293 or CHO", "assay": "Ion channel panel (IonWorks Barracuda): α3β4", "assay_type": "cell-based", "settings": "100% = no change, <100% = inhibition", "outline": "as §1"}, "Kv1.2": {"target": "T10, Kv1.2 (Homo sapiens, UniProt P16389)", "T10 construct": "host or cells: HEK293 or CHO", "T10 sequence (P16389 whole entry)": "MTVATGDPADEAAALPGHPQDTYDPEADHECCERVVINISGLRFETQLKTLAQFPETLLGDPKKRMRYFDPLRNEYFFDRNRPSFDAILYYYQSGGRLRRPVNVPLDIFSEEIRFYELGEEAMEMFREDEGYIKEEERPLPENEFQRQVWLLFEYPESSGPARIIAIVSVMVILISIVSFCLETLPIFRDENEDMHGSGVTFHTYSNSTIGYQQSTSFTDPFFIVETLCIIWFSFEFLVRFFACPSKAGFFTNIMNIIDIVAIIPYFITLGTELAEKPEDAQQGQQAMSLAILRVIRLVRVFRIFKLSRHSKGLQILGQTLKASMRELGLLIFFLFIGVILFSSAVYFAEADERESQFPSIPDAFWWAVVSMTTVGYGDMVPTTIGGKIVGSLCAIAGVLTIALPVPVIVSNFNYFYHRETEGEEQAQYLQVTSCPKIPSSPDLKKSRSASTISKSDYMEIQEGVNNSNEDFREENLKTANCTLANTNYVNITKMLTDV", "assay": "cell-based", "assay_type": "cell-based", "settings": "100% = no change, <100% = inhibition", "outline": "as §1"}, "Kv1.3": {"target": "T11, Kv1.3 (Homo sapiens, UniProt P22001)", "T11 construct": "host or cells: HEK293 or CHO", "assay": "cell-based", "assay_type": "cell-based", "settings": "100% = no change, <100% = inhibition", "outline": "as §1"}, "Kv1.1": {"target": "T12, Kv1.1 (Homo sapiens, UniProt Q09470)", "T12 construct": "host or cells: HEK293 or CHO", "T12 sequence (Q09470 whole entry)": "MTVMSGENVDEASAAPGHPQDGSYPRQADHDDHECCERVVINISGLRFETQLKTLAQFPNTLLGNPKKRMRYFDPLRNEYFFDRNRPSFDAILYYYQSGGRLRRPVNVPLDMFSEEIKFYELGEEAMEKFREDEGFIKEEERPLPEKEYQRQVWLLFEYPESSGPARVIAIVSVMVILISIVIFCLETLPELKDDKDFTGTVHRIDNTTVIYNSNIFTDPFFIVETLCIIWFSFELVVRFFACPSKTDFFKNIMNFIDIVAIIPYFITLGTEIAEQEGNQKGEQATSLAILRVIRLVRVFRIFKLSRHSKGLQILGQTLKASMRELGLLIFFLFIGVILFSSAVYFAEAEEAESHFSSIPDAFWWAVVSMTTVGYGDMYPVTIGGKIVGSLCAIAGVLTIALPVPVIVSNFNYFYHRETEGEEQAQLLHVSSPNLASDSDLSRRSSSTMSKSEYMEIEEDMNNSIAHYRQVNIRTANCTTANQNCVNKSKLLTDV", "assay": "cell-based", "assay_type": "cell-based", "settings": "100% = no change, <100% = inhibition", "outline": "as §1"}, "5HT3a": {"target": "T13, 5HT3a (Homo sapiens, UniProt P46098)", "T13 construct": "host or cells: HEK293 or CHO", "T13 sequence (P46098 whole entry, looked up)": "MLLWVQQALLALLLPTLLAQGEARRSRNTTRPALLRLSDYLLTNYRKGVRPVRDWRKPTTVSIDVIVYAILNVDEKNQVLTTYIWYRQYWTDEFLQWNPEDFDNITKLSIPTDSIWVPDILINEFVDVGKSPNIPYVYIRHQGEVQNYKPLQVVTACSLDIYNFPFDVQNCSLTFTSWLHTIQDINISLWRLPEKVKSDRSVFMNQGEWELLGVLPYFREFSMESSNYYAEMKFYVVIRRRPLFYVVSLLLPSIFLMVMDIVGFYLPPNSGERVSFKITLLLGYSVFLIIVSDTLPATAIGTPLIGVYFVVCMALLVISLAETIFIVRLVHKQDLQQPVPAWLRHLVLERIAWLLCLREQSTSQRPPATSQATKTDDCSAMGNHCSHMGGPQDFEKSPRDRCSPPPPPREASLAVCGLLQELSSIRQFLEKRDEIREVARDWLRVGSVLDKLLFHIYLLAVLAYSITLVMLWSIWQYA", "assay": "Ion channel panel (IonWorks Barracuda): 5HT3a", "assay_type": "cell-based", "outline": "as §1"}, "Kir2.1": {"target": "T14, Kir2.1 (Homo sapiens, UniProt P63252)", "T14 construct": "host or cells: HEK293 or CHO", "assay": "Ion channel panel (IonWorks Barracuda): Kir2.1", "assay_type": "cell-based", "settings": "100% = no change, <100% = inhibition", "outline": "as §1"}, "NR2B": {"target": "T15, NR2B (Homo sapiens, UniProt Q13224)", "T15 construct": "host or cells: HEK293 or CHO", "assay": "Ion channel panel (IonWorks Barracuda): NR2B", "assay_type": "cell-based", "settings": "100% = no change, <100% = inhibition", "outline": "as §1"}, "[1]": {"settings": "first of two Nav1.5 columns (probably TP1)"}, "[2]": {"settings": "second of two Nav1.5 columns (probably TP2)"}, "[3]": {"settings": "first of two Nav1.7 columns (probably TP1)"}, "[4]": {"settings": "second of two Nav1.7 columns (probably TP2)"}}}
{"substance": "19 (GSQFTDVKCTGSKQCWPVCKQMFGKPNGKCMNGKCRCYS) [compound 19]", "values": [{"measurement": "Activity of Kv2.1 with peptide, expressed as a percentage of the reference compound", "setting": "Kv2.1; peptide at 0.2 μM", "value": 95, "unit": "%"}, {"measurement": "Activity of Kv2.1 with peptide (percentage of the reference compound)", "setting": "Kv2.1; peptide at 20 μM", "value": 108, "unit": "%"}, {"measurement": "Activity of Cav2.1 with peptide, expressed as a percentage of the reference compound", "setting": "Cav2.1; peptide at 0.2 μM", "value": 106, "unit": "%"}, {"measurement": "Activity of Cav2.1 with peptide (percentage of the reference compound)", "setting": "Cav2.1; peptide at 20 μM", "value": 109, "unit": "%"}, {"measurement": "Activity of Cav2.2 with peptide, expressed as a percentage of the reference compound", "setting": "Cav2.2; peptide at 0.2 μM", "value": 116, "unit": "%"}, {"measurement": "Activity of Cav2.2 with peptide (percentage of the reference compound)", "setting": "Cav2.2; peptide at 20 μM", "value": 94, "unit": "%"}, {"measurement": "Activity of Nav1.5 with peptide, expressed as a percentage of the reference compound", "setting": "Nav1.5; [1]", "value": 112, "unit": "%"}, {"measurement": "Activity of Nav1.5 with peptide, expressed as a percentage of the reference compound", "setting": "Nav1.5; [2]", "value": 114, "unit": "%"}, {"measurement": "Activity of Nav1.5 with peptide (percentage of the reference compound)", "setting": "Nav1.5; [1]", "value": 117, "unit": "%"}, {"measurement": "Activity of Nav1.5 with peptide (percentage of the reference compound)", "setting": "Nav1.5; [2]", "value": 117, "unit": "%"}, {"measurement": "Activity of hERG with peptide, expressed as a percentage of the reference compound", "setting": "hERG; peptide at 0.2 μM", "value": 98, "unit": "%"}, {"measurement": "Activity of hERG with peptide (percentage of the reference compound)", "setting": "hERG; peptide at 20 μM", "value": 86, "unit": "%"}, {"measurement": "Activity of a4b2 with peptide, expressed as a percentage of the reference compound", "setting": "α4β2; peptide at 0.2 μM", "value": 99, "unit": "%"}, {"measurement": "Activity of a4b2 with peptide (percentage of the reference compound)", "setting": "α4β2; peptide at 20 μM", "value": 93, "unit": "%"}, {"measurement": "Activity of NR2A with peptide, expressed as a percentage of the reference compound", "setting": "NR2A; peptide at 0.2 μM", "value": 90, "unit": "%"}, {"measurement": "Activity of NR2A with peptide (percentage of the reference compound)", "setting": "NR2A; peptide at 20 μM", "value": 99, "unit": "%"}, {"measurement": "Activity of TRPV1 with peptide, expressed as a percentage of the reference compound", "setting": "TRPV1; peptide at 0.2 μM", "value": 94, "unit": "%"}, {"measurement": "Activity of TRPV1 with peptide (percentage of the reference compound)", "setting": "TRPV1; peptide at 20 μM", "value": 90, "unit": "%"}, {"measurement": "Activity of Nav1.7 with peptide, expressed as a percentage of the reference compound", "setting": "Nav1.7; [3]", "value": 91, "unit": "%"}, {"measurement": "Activity of Nav1.7 with peptide, expressed as a percentage of the reference compound", "setting": "Nav1.7; [4]", "value": 92, "unit": "%"}, {"measurement": "Activity of Nav1.7 with peptide (percentage of the reference compound)", "setting": "Nav1.7; [3]", "value": 121, "unit": "%"}, {"measurement": "Activity of Nav1.7 with peptide (percentage of the reference compound)", "setting": "Nav1.7; [4]", "value": 140, "unit": "%"}, {"measurement": "Activity of TRPA1 with peptide, expressed as a percentage of the reference compound", "setting": "TRPA1; peptide at 0.2 μM", "value": 126, "unit": "%"}, {"measurement": "Activity of TRPA1 with peptide (percentage of the reference compound)", "setting": "TRPA1; peptide at 20 μM", "value": 109, "unit": "%"}, {"measurement": "Activity of GABA with peptide, expressed as a percentage of the reference compound", "setting": "GABA; peptide at 0.2 μM", "value": 93, "unit": "%"}, {"measurement": "Activity of GABA with peptide (percentage of the reference compound)", "setting": "GABA; peptide at 20 μM", "value": 111, "unit": "%"}, {"measurement": "Activity of a3b4 with peptide, expressed as a percentage of the reference compound", "setting": "α3β4; peptide at 0.2 μM", "value": 101, "unit": "%"}, {"measurement": "Activity of a3b4 with peptide (percentage of the reference compound)", "setting": "α3β4; peptide at 20 μM", "value": 97, "unit": "%"}, {"measurement": "Activity of Kv1.2 with peptide, expressed as a percentage of the reference compound", "setting": "Kv1.2; peptide at 0.2 μM", "value": 41, "unit": "%"}, {"measurement": "Activity of Kv1.2 with peptide (percentage of the reference compound)", "setting": "Kv1.2; peptide at 20 μM", "value": 37, "unit": "%"}, {"measurement": "Activity of Kv1.3 with peptide, expressed as a percentage of the reference compound", "setting": "Kv1.3; peptide at 0.2 μM", "value": 4, "unit": "%"}, {"measurement": "Activity of Kv1.3 with peptide (percentage of the reference compound)", "setting": "Kv1.3; peptide at 20 μM", "value": "−1", "unit": "%"}, {"measurement": "Activity of Kv1.1 with peptide, expressed as a percentage of the reference compound", "setting": "Kv1.1; peptide at 0.2 μM", "value": 100, "unit": "%"}, {"measurement": "Activity of Kv1.1 with peptide (percentage of the reference compound)", "setting": "Kv1.1; peptide at 20 μM", "value": 44, "unit": "%"}, {"measurement": "Activity of 5HT3a with peptide (percentage of the reference compound)", "setting": "5HT3a", "value": 69, "unit": "%"}, {"measurement": "Activity of 5HT3a with peptide, expressed as a percentage of the reference compound", "setting": "5HT3a", "value": 89, "unit": "%"}, {"measurement": "Activity of Kir2.1 with peptide, expressed as a percentage of the reference compound", "setting": "Kir2.1; peptide at 0.2 μM", "value": 107, "unit": "%"}, {"measurement": "Activity of Kir2.1 with peptide (percentage of the reference compound)", "setting": "Kir2.1; peptide at 20 μM", "value": 93, "unit": "%"}, {"measurement": "Activity of NR2B with peptide, expressed as a percentage of the reference compound", "setting": "NR2B; peptide at 0.2 μM", "value": 117, "unit": "%"}, {"measurement": "Activity of NR2B with peptide (percentage of the reference compound)", "setting": "NR2B; peptide at 20 μM", "value": 130, "unit": "%"}]}
